Test results reported in article PMC11063955, “A multiplexed time-resolved fluorescence resonance energy transfer ultrahigh-throughput screening assay for targeting the SMAD4–SMAD3–DNA complex” (Journal of Molecular Cell Biology, 2023).

Columns and labels:
Details in all cases: remark: other sources report otherwise
[1] = molecular target: T1, His-tagged SMAD4 WT (Mothers against decapentaplegic homolog 4), Q13485; test: AlphaScreen or HTRF; multiplexed TR-FRET, PPI read-out (Tb-D2), lysate of HEK293T cells co-expressing His-SMAD4 and Flag-SMAD3 with point-mutated 5'-FAM-SBE4 Mut dsDNA in place of the WT dsDNA
T1 chain: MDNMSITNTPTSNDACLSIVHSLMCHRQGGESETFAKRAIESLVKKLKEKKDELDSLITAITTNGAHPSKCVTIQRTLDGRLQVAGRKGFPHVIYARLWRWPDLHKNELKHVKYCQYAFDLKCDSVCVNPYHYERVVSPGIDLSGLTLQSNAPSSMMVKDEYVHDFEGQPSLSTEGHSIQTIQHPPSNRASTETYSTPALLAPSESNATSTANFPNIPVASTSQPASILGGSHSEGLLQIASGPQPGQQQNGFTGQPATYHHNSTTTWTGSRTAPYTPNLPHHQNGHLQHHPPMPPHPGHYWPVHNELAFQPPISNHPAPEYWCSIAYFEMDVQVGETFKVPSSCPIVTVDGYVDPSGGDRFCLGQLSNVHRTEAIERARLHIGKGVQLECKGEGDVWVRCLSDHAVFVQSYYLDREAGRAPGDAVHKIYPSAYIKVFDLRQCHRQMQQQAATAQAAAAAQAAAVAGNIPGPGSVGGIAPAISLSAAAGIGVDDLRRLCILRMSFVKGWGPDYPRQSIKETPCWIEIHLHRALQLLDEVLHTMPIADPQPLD

[2] = molecular target: T2, His-tagged SMAD4 R361H, Q13485; test: AlphaScreen or HTRF; multiplexed TR-FRET, PPI read-out (Tb-D2), lysate of HEK293T cells co-expressing His-SMAD4 and Flag-SMAD3 (WT or mutated) with 5'-FAM-SBE4 WT dsDNA; anti-FLAG M2-Tb cryptate and anti-6xHis-D2 antibodies; FRET buffer 20 mM Tris-HCl pH 7.0, 50 mM NaCl, 0.01% NP-40; 4°C for 30 min
T2 chain: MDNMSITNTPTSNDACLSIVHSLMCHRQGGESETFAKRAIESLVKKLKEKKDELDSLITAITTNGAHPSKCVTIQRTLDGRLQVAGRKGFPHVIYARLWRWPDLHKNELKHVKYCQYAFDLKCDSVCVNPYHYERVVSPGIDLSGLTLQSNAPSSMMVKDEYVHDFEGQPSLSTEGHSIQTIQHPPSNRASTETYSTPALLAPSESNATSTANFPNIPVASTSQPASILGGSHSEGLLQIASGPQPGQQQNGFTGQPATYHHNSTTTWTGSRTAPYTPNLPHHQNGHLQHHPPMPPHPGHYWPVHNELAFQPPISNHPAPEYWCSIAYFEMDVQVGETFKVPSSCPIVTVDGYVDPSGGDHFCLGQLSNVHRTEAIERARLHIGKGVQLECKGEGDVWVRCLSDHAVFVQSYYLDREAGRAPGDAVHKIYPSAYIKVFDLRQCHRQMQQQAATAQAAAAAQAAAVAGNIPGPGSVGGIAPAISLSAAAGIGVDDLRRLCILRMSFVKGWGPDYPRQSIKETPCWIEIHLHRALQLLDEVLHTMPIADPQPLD

[3] = molecular target: T3, His-tagged SMAD4 R361C, Q13485; test: as above
T3 chain: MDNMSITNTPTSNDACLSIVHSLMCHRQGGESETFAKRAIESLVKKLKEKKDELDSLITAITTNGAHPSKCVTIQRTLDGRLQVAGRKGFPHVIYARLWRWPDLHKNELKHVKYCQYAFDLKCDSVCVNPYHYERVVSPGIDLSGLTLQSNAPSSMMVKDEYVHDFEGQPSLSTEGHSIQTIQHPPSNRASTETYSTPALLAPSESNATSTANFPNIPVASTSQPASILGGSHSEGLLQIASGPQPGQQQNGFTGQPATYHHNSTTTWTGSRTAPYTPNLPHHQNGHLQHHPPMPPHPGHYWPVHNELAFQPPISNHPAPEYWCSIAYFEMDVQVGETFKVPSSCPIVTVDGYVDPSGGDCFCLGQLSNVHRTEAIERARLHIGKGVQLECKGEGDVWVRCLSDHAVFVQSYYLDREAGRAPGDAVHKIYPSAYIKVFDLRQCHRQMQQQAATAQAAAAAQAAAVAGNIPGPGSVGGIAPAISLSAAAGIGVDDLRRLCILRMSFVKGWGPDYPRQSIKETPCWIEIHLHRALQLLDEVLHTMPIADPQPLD

B1: Flag-tagged SMAD3 WT, P84022 1-425 (natural protein)
chain: MSSILPFTPPIVKRLLGWKKGEQNGQEEKWCEKAVKSLVKKLKKTGQLDELEKAITTQNVNTKCITIPRSLDGRLQVSHRKGLPHVIYCRLWRWPDLHSHHELRAMELCEFAFNMKKDEVCVNPYHYQRVETPVLPPVLVPRHTEIPAEFPPLDDYSHSIPENTNFPAGIEPQSNIPETPPPGYLSEDGETSDHQMNHSMDAGSPNLSPNPMSPAHNNLDLQPVTYCEPAFWCSISYYELNQRVGETFHASQPSMTVDGFTDPSNSERFCLGLLSNVNRNAAVELTRRHIGRGVRLYYIGGEVFAECLSDSAIFVQSPNCNQRYGWHPATVCKIPPGCNLKIFNNQEFAALLAQSVNQGFEAVYQLTRMCTIRMSFVKGWGAEYRRQTVTSTPCWIELHLNGPLQWLDKVLTQMGSPSIRCSSVS
decrease of the PPI signal with 5'-FAM-SBE4 Mut dsDNA against WT dsDNA [1]: 15%
reduction of the PPI signal against SMAD4 WT [2]: 75%
reduction of the PPI signal against SMAD4 WT [3]: 75%
